Settings: Enterobacteria phage fd; pH 7; 25 °C; GdnHCl; CD; MOPS 50 mM; NaCl 100 mM; reversible: yes; whole UniProt chain shown

B1: DNA-Binding protein G5P wild type, P69542 (protein)
chain: MIKVEIKPSQAQFTTRSGVSRQGKPYSLNEQLCYVDLGNEYPVLVKITLDEGQPAYAPGLYTVHLSSFKVGQFGSLMIDRLRLVPAK
unfolding free energy: 37.7 kJ/mol

Source: FireProtDB (doi:10.1073/pnas.90.18.8367)
